Source: patent US20080268549A1, “THIOFLAVIN T METHOD FOR DETECTION OF AMYLOID POLYPEPTIDE FIBRIL AGGREGATION” (priority 2007, published 2008)
“Also recorded” adds a separate entry of the source.

Columns and labels:
β-amyloid peptide (1-40) = biological target: T1, β-amyloid peptide (1-40) (Homo sapiens, UniProt P05067); assay: Thioflavin T fluorescence assay of Aβ fibril aggregation; format: biochemical; conditions: FIG. 5
T1 construct: β-amyloid peptide (1-40) can be obtained from Biosource; purchased Biosource (Camarillo, Calif.)
Description: (1) Prepare a stock ThT solution (1 mg/ml; 3.14 mM) in distilled, deionized water, aliquot into small samples and store long term at −20° C. in the dark. Thaw frozen samples only once and discard the remainder. Add 1.6 μl of ThT solution to 1.0 ml of 50 mM Tris buffer, pH 7.4 to yield a final 5.0 μM ThT solution.
(2) β-amyloid peptide (1-40) can be obtained from Biosource (Camarillo, Calif.), CLN from ReGen Therapeutics Plc (London, UK) and Thioflavin T from Sigma (St. Louis, Mo.). Prepare a stock solution of β-amyloid (by dissolving in 10 mM NaOH (0.5 mg/ml) and stored at −70° C. until used. Aβ in base is stable for at least 3 weeks frozen. Add 5.0 μl (2.5 μg) of β-amyloid stock solution to 1.0 ml of ThT/Tris buffer solution. It is preferable to avoid any contact with metal when preparing a amyloid solution since metal can oxidize the peptide.
(3) Measure the fluorescence intensity of 1.0 ml of Aβ/ThT/Tris solution using an excitation wavelength of 440 nm and an emission wavelength of 482 nm. A control solution of Aβ/Tris solution, without ThT can be used as a control. The fluorescence intensity above the control is used as a measure of fibril content.
(4) If the assay is intended to measure the change in Aβ aggregation and used to quantitate the effect of test agents, prepare a second sample containing the drug or agent as in step 2. Preincubate the samples for the appropriate length of time (usually days to weeks) required to yield a change in fluorescence intensity.
Samples of Aβ in base were prepared as described in Example 1. ThT in Tris buffer was then added to the sample together with CLN at a concentration range of 2.5-10 nM and was preincubated for either 1 or 2 days and the fluorescence intensity measured following the above procedure. […] After a 2-day treatment with 10 nM CLN, approximately 50% of the Aβ fibrils are dissolved.

Aβ (1-40) = biological target: T2, Aβ (1-40) (Homo sapiens, UniProt P05067); assay: Circular dichroism spectra of Aβ secondary structure
T2 construct: β-amyloid peptide (1-40) can be obtained from Biosource; purchased Biosource (Camarillo, Calif.)
Description: CD is routinely used to monitor changes in secondary structure (Wang et al., 2005). In order to verify that CLN does indeed cause a shift in secondary structure, a CD spectra of Aβ treated with CLN and control were taken at 24 and 48 h. For these experiments, a 10 μM solution of Aβ (1-40) (first solubilized in base as in previous examples) was prepared in 50 mM Tris buffer, pH 7.4, with and without 50 nM CLN and ThT. Circular dichroism (CD) spectra of the Aβ (1-40) peptide solutions were recorded using a Jasco J-715 CD spectropolarimeter at 25° C. using a bandwidth of 1.0 nm, a sensitivity of 0.5 nm and a recording speed of 50 nm/min. The results were plotted as ellipticity (mdeg) versus wavelength (nm).

T1 sequence (P05067 672-711 limits assumed): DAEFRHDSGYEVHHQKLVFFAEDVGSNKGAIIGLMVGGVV
T2 sequence (P05067 672-711 limits assumed): as above

Row | Compound | Aβ fibrils dissolved (β-amyloid peptide (1-40); 10 nM CLN, 2-day treatment) | decrease in Aβ aggregation (ThT fluorescence), maximum (β-amyloid peptide (1-40); 10 nM CLN, at 2 days) [%] | effect on Aβ aggregation (ThT fluorescence) (β-amyloid peptide (1-40); CLN 2.5-10 nM, preincubated 1 or 2 days) | effect on secondary structure (conformation) of Aβ by CD spectra (Aβ (1-40); 10 μM Aβ (1-40), 50 nM CLN, 50 mM Tris pH 7.4, 24 and 48 h, FIG. 6A) | effect of ThT on conformation of CLN treated Aβ samples by CD spectra (Aβ (1-40); 10 μM Aβ (1-40) with 50 nM CLN and ThT, FIG. 6B)
1 | colostrinin [CLN] | approximately 50% | 40 | dose-dependent decrease | shift from β-sheet to α-helix; also recorded: shifted to a random-coil/α-helical rich conformation | –
2 | Cc1ccc2c(c1)sc(-c1ccc(N(C)C)cc1)[n+]2C.[Cl-] [ThT, Thioflavin T] | – | – | – | – | did not have an effect
